This note sets out measurements from publication PMC4529235, “The Human Acid-Sensing Ion Channel ASIC1a: Evidence for a Homotetrameric Assembly State at the Cell Surface” (PLoS ONE, 2015).

Series [1] concerns the molecule itself. Put plainly: cross-linking; intracellular BMOE (2 mM, internal perfusion or injection) in Xenopus oocytes; SDS-PAGE under reducing conditions, anti-ASIC1a western blot. On the technique in general: In western blotting, separated proteins are transferred to a membrane and probed.
Series [2] concerns the molecule itself. As to the kind of experiment: cross-linking; BMOE (0.5 or 2 mM) at the cell surface of Xenopus oocytes and CHO cells before lysis, cell-surface biotinylated fractions, SDS-PAGE under reducing conditions, anti-ASIC1a western blot; band intensities pooled over oocytes and CHO cells.
Series [3] deals with the molecule itself. As to the kind of experiment: cross-linking; 2 mM BMOE at the cell surface of intact Xenopus oocytes, cell-surface biotinylation, streptavidin beads, SDS-PAGE under reducing conditions, anti-His-tag western blot (ΔCCt background).

Residue numbers refer to the chain shown, from its start. Names and notes keep the numbering of the source.

B1: wild type human ASIC1a (H8-ASIC1a) (natural protein, UniProt P78348-2 1-528, looked up)
chain: MELKAEEEEVGGVQPVSIQAFASSSTLHGLAHIFSYERLSLKRALWALCFLGSLAVLLCVCTERVQYYFHYHHVTKLDEVAASQLTFPAVTLCNLNEFRFSQVSKNDLYHAGELLALLNNRYEIPDTQMADEKQLEILQDKANFRSFKPKPFNMREFYDRAGHDIRDMLLSCHFRGEVCSAEDFKVVFTRYGKCYTFNSGRDGRPRLKTMKGGTGNGLEIMLDIQQDEYLPVWGETDETSFEAGIKVQIHSQDEPPFIDQLGFGVAPGFQTFVACQEQRLIYLPPPWGTCKAVTMDSDLDFFDSYSITACRIDCETRYLVENCNCRMVHMPGDAPYCTPEQYKECADPALDFLVEKDQEYCVCEMPCNLTRYGKELSMVKIPSKASAKYLAKKFNKSEQYIGENILVLDIFFEVLNYETIEQKKAYEIAGLLGDIGGQMGLFIGASILTVLELFDYAYEVIKHKLCRRGKCQKEAKRSSADKGVALSLDDVKRHNPCESLRGHPAGMTYAANILPHHPARGTFEDFTC
notes: ends with the terminal Cys (C528); Same construct expressed in two hosts; the printed band intensities pool oocytes and CHO cells; also called ASIC1a wt; hASIC1a; source: Xenopus laevis oocytes, cRNA injected; CHO-K1 cells, transfected; not shown: His8, N-terminal, kept
One may read the stoichiometry N as a count of units in the complex or per binding partner. As for B1, the “stoichiometry N” value in series [1] came to 4.

B2: ASIC1a G433C (with intact C-terminal cysteines) (natural protein, human, UniProt P78348-2 1-528, looked up)
chain: B1 chain with G433C
notes: human ASIC1a with G433C, C-terminal cysteines intact; The methods describe G433C only on the ΔCCt template; the results say that this G433C has intact C-terminal cysteines; source: Xenopus laevis oocytes, cRNA injected; CHO-K1 cells, transfected; not shown: His8, N-terminal, kept
Turning to B2, the “stoichiometry N” value in series [2] was 4.

B3: ASIC1a-ΔCCt (H8-hASIC1a-C466A/C471A/C497A/C528Stop) (natural protein, human, UniProt P78348-2 1-527, looked up)
chain: MELKAEEEEVGGVQPVSIQAFASSSTLHGLAHIFSYERLSLKRALWALCFLGSLAVLLCVCTERVQYYFHYHHVTKLDEVAASQLTFPAVTLCNLNEFRFSQVSKNDLYHAGELLALLNNRYEIPDTQMADEKQLEILQDKANFRSFKPKPFNMREFYDRAGHDIRDMLLSCHFRGEVCSAEDFKVVFTRYGKCYTFNSGRDGRPRLKTMKGGTGNGLEIMLDIQQDEYLPVWGETDETSFEAGIKVQIHSQDEPPFIDQLGFGVAPGFQTFVACQEQRLIYLPPPWGTCKAVTMDSDLDFFDSYSITACRIDCETRYLVENCNCRMVHMPGDAPYCTPEQYKECADPALDFLVEKDQEYCVCEMPCNLTRYGKELSMVKIPSKASAKYLAKKFNKSEQYIGENILVLDIFFEVLNYETIEQKKAYEIAGLLGDIGGQMGLFIGASILTVLELFDYAYEVIKHKLARRGKAQKEAKRSSADKGVALSLDDVKRHNPAESLRGHPAGMTYAANILPHHPARGTFEDFT
notes: human ASIC1a lacking the cysteines of the C-terminus; C528Stop removes the last residue; also called Ctrl; source: Xenopus laevis oocytes, cRNA injected; not shown: His8, N-terminal, kept
Consider B3, for which the “stoichiometry N” value in series [3] is 2.

B4: G433C-ΔCCt (natural protein, human, UniProt P78348 1-527, looked up)
chain: B3 chain with G433C
notes: human ASIC1a, ΔCCt background (C528Stop removes the last residue) with G433C; source: Xenopus laevis oocytes, cRNA injected; not shown: His8, N-terminal, kept
Turning to B4, the “stoichiometry N” value in series [3] was determined as 4.

B5: G430C-ΔCCt (natural protein, human, UniProt P78348 1-527, looked up)
chain: B3 chain with G430C
notes: human ASIC1a, ΔCCt background (C528Stop removes the last residue) with G430C; source: Xenopus laevis oocytes, cRNA injected; not shown: His8, N-terminal, kept
Consider B5, for which the “stoichiometry N” value in series [3] was found to be 4.

B6: V74C-ΔCCt (natural protein, human, UniProt P78348 1-527, looked up)
chain: B3 chain with V74C
notes: human ASIC1a, ΔCCt background (C528Stop removes the last residue) with V74C; source: Xenopus laevis oocytes, cRNA injected; not shown: His8, N-terminal, kept
For the protein B6, the “stoichiometry N” value in series [3] worked out at 4.

B7: Y426C-ΔCCt (natural protein, human, UniProt P78348 1-527, looked up)
chain: B3 chain with Y426C
notes: human ASIC1a, ΔCCt background (C528Stop removes the last residue) with Y426C; also called Y426C-CCt; source: Xenopus laevis oocytes, cRNA injected; not shown: His8, N-terminal, kept
As to B7, in series [3], the “stoichiometry N” value was 4.
